Here are results for one substance from PMC4766841.

This assay addresses CIB1N-DBD (CIB1N (1-170) fused to the Gal4 DNA binding domain) (Arabidopsis thaliana) (UniProt Q8GY61). Kind of assay: two-hybrid.
UniProt Q8GY61, sequence (Q8GY61 1-170): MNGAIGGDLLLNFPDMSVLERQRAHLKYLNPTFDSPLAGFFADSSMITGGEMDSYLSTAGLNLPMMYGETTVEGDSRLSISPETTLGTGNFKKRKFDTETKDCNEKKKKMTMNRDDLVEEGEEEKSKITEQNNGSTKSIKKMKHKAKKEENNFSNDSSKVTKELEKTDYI

“CRY2PHR-AD (CRY2PHR fused to the Gal4 activation domain) (from UniProt Q96524 1-498) (domain or fragment)” showed a β-Gal Light of 47.1.
